Key:
[1] = biological target: T1, human B7-H3 expressed on a cell surface (human cancer cell lines) (human, UniProt Q5ZPR3 29-534); test: flow cytometry, HT29 cells, antibody 10 ug/ml
T1 construct: whole, on cells; also called cell surface expression B7-H3 antigen
T1 sequence (looked up): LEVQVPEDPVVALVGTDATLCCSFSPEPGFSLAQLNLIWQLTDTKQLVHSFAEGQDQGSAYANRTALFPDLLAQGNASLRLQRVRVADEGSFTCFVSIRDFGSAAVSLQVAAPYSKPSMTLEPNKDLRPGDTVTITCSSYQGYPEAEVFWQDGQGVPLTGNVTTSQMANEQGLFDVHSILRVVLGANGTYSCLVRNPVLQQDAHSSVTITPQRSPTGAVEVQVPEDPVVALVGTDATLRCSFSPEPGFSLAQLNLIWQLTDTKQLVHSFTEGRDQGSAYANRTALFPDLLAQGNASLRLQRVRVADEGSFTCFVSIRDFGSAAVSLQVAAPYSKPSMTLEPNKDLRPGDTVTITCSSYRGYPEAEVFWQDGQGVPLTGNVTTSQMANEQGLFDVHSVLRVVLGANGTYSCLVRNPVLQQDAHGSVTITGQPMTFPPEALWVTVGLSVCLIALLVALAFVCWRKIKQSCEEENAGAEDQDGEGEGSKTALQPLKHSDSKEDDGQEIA
Text: (§1) Using various kinds of cancer cells A2780 (human ovarian cancer, ECACC, 93112519), SKOV-3 (human ovarian adenocarcinoma, ATCC® HTB-77™) OVCAR-3 (human ovarian adenocarcinoma, ATCC® HTB-161™), HCT116 (colon cancer cell, ThermoFIshcer Sci), HT29 (olorectal adenocarcinoma, ATCC® HTB-38™), DLD-1 (colorectal adenocarcinoma cell lines, ATCC® CCL-221™), Calu-6 (Non-small-cell lung carcinoma, ATCC® HTB-56™), HCC1954 (TNM stage IIA, grade 3, ductal carcinoma, ATCC® CRL-2338™), HCC1187 (TNM stage IIA, ATCC® CLC-2322™), renal cancer cell line 786-0 (renal cell adenocarcinoma, ATCC® CRL-1932™), A498 (kidney carcinoma, ATCC® HTB-44™), Panc-1 (pancreas epithelioid carcinoma, TCC CRL-1469™), NCI-N87 (gastric carcinoma, TCC CRL-5822™), HeLa (cervix adenocarcinoma, ATCC® CCL-2™), JeKo-1 (Lymphoma, ATCC® CRL-3006™) and FACSCalibur (BD Biosciences) device, the degree of binding of anti-B7-H3 antibody to B7-H3 was measured as follows.
(§2) After dissociating each cell line and washing it with PBS buffer, the number of cells was counted and adjusted to 2×10^5 cells/200 µl PBS, and then was treated with 10 µg/ml of B7-H3 monoclonal antibodies prepared in Example 2. Reaction was allowed at 4° C. for 1 hr. […] After the reaction, cells were washed in PBS and analyzed using the FACSCalibur device. […]

[2] = biological target: T1, human B7-H3 expressed on a cell surface …; test: flow cytometry, Hela cells, antibody 10 ug/ml
Text: as §1, §2

[3] = biological target: T1, human B7-H3 expressed on a cell surface …; test: flow cytometry, 786-0 cells, antibody 10 ug/ml
Text: as §1, §2

[4] = biological target: T1, human B7-H3 expressed on a cell surface …; test: flow cytometry, A-498 cells, antibody 10 ug/ml
Text: as §1, §2

[5] = biological target: T1, human B7-H3 expressed on a cell surface …; test: flow cytometry, A2780 cells, antibody 10 ug/ml
Text: as §1, §2

[6] = biological target: T1, human B7-H3 expressed on a cell surface …; test: flow cytometry, DLD-1 cells, antibody 10 ug/ml
Text: as §1, §2

[7] = biological target: T1, human B7-H3 expressed on a cell surface …; test: flow cytometry, MCF-7 cells, antibody 10 ug/ml
[8] = biological target: T1, human B7-H3 expressed on a cell surface …; test: flow cytometry, Calu-6 cells, antibody 10 ug/ml
Text: as §1, §2

[9] = biological target: T1, human B7-H3 expressed on a cell surface …; test: flow cytometry, HCT116 cells, antibody 10 ug/ml
Text: as §1, §2

[10] = biological target: T1, human B7-H3 expressed on a cell surface …; test: flow cytometry, JeKo-1 cells, antibody 10 ug/ml
Text: as §1, §2

[11] = biological target: T1, human B7-H3 expressed on a cell surface …; test: flow cytometry, Panc-1 cells, antibody 10 ug/ml
Text: as §1, §2

[12] = biological target: T1, human B7-H3 expressed on a cell surface …; test: flow cytometry, SKOV-3 cells, antibody 10 ug/ml
Text: as §1, §2

[13] = biological target: T1, human B7-H3 expressed on a cell surface …; test: flow cytometry, HCC1187 cells, antibody 10 ug/ml
Text: as §1, §2

[14] = biological target: T1, human B7-H3 expressed on a cell surface …; test: flow cytometry, HCC1954 cells, antibody 10 ug/ml
Text: as §1, §2

[15] = biological target: T1, human B7-H3 expressed on a cell surface …; test: flow cytometry, NCI-N87 cells, antibody 10 ug/ml
Text: as §1, §2

[16] = biological target: T1, human B7-H3 expressed on a cell surface …; test: flow cytometry, OVCAR-3 cells, antibody 10 ug/ml
Text: as §1, §2

[17] = biological target: T1, human B7-H3 expressed on a cell surface …; test: flow cytometry, MDA-MB-231 cells, antibody 10 ug/ml
[18] = biological target: T1, human B7-H3 expressed on a cell surface …; test: flow cytometry, MDA-MB-468 cells, antibody 10 ug/ml

B1: 84D (comparison group antibody, Enoblituzumab) (antibody, V domains shown)
VH: EVQLVESGGGLVQPGGSLRLSCAASGFTFSSFGMHWVRQAPGKGLEWVAYISSDSSAIYYADTVKGRFTISRDNAKNSLYLQMNSLRDEDTAVYYCGRGRENIYYGSRLDYWGQGTTVTVSS
VL: DIQLTQSPSFLSASVGDRVTITCKASQNVDTNVAWYQQKPGKAPKALIYSASYRYSGVPSRFSGSGSGTDFTLTISSLQPEDFATYYCQQYNNYPFTFGQGTKLEIK
Q: Which “MFI Ratio” value [1] does the source give for B1 here?
A: The value was 8.9 ratio.

Q: And the “MFI Ratio” value [2]?
A: Its value is 23.5 ratio.

Q: What about the “MFI Ratio” value [3] of the same binder?
A: The value was 20 ratio.

Q: What about the “MFI Ratio” value [4] of the same binder?
A: Its value is 24 ratio.

Q: What about the “MFI Ratio” value [5] of the same binder?
A: The value was 13.1 ratio.

Q: And the “MFI Ratio” value [6]?
A: Its value is 10.7 ratio.

Q: What about the “MFI Ratio” value [7] of the same binder?
A: Its value is 78 ratio.

Q: What about the “MFI Ratio” value [8] of the same binder?
A: Its value is 23.2 ratio.

Q: And the “MFI Ratio” value [9]?
A: The value was 5.9 ratio.

Q: What about the “MFI Ratio” value [10] of the same binder?
A: The value was 2.9 ratio.

Q: And the “MFI Ratio” value [11]?
A: Its value is 9 ratio.

Q: What about the “MFI Ratio” value [12] of the same binder?
A: Its value is 11.9 ratio.

Q: And the “MFI Ratio” value [13]?
A: Its value is 14.9 ratio.

Q: What about the “MFI Ratio” value [14] of the same binder?
A: The value was 14 ratio.

Q: What about the “MFI Ratio” value [15] of the same binder?
A: The value was 12.8 ratio.

Q: What about the “MFI Ratio” value [16] of the same binder?
A: Its value is 13.7 ratio.

Q: And the “MFI Ratio” value [17]?
A: Its value is 5.4 ratio.

Q: And the “MFI Ratio” value [18]?
A: The value was 8.6 ratio.

From patent US11891445 (ABL BIO, dated 2024)
